From paper PMC3099344 (Structure (London, England : 1993), 2011)

Assays:
AUC = biological target: the molecule itself; test: AUC
crystal structure = biological target: the molecule itself; test: crystal structure

Row | Protein | Kd (AUC) [µM] | binding result (crystal structure)
1 | M. musculus Mesd structured domain (mmMesdSD) (domain or fragment, Mus musculus) GSHMTKKGKTLMMFVTVSGNPTEKETEEITSLWQGSLFNANYDVQRFIVGSDRAIFMLRDGSYAWEIKDFLVSQDRCAEVTLEGQMYPG | 276 ± 13.8 | 
2 | D. melanogaster Boca structured domain (dmBocaSD) (domain or fragment, Drosophila melanogaster) GSQKHMSKKGRTLMTFVSVTGNPTREESDTITKLWQTSLWNNHIQAERYMVDDNRAIFLFKDGTQAWDAKDFLIEQERCKGVTIENKEYPG | 77 ± 3.1 | 
3 | Selenomethionyl D. melanogaster Boca structured domain (SeMet dmBocaSD) (domain or fragment, Drosophila melanogaster, selenomethionyl (SeMet) protein) GSQKHMSKKGRTLMTFVSVTGNPTREESDTITKLWQTSLWNNHIQAERYMVDDNRAIFLFKDGTQAWDAKDFLIEQERCKGVTIENKEYPG |  | binds
4 | D. melanogaster Boca conserved core (dmBocaCC) (domain or fragment, Drosophila melanogaster) GSHMKKDIRDYSEADLERLLDQWEEDEEPLEDDELPEHLRPQPKLDLSNLDSKSPEDLLKVSKKGRTLMTFVSVTGNPTREESDTITKLWQTSLWNNHIQAERYMVDDNRAIFLFKDGTQAWDAKDFLIEQERCKGVTIENKEYPG | 155 ± 4.6 | 
